This note sets out measurements from PMC11257983 (2024).

The labels stand for the following.
B1: Myc-MEK [Drosophila] / V5-KSR [Drosophila] (parent complex)
chain 1: MSKNKLNLVLPPVNTEATVAAATVAPTPPFKTPSGTDTHSLLGKPKTSIDALTETLEGLDMGDTERKRIKMFLSQKEKIGELSDEDLEKLGELGSGNGGVVMKVRHTHTHLIMARKLIHLEVKPAIKKQILRELKVLHECNFPHIVGFYGAFYSDGEISICMEYMDGGSLDLILKRAGRIPESILGRITLAVLKGLSYLRDNHAIIHRDVKPSNILVNSSGEIKICDFGVSGQLIDSMANSFVGTRSYMSPERLQGTHYSVQSDIWSLGLSLVEMAIGMYPIPPPNTATLESIFADNAEESGQPTDEPRAMAIFELLDYIVNEPPPKLEHKIFSTEFKDFVDICLKKQPDERADLKTLLSHPWIRKAELEEVDISGWVCKTMDLPPSTPKRNTSPN
chain 2: MSSNNNAPASAPDTGSTNANDPISGSLSVDSNLVIIQDMIDLSANHLEGLRTQCAISSTLTQQEIRCLESKLVRYFSELLLAKMRLNERIPANGLVPHTTGNELRQWLRVVGLSQGTLTACLARLTTLEQSLRLSDEEIRQLLADSPSQREEEELRRLTRAMQNLRKCMESLESGTAASNNDPEQWHWDSWDRPTHIHRGSVGNIGLGNNSTASPRTHHRQHGVKGKNSALANSTNFKSGRQSPSATEELNSTQGSQLTLTLTPSPPNSPFTPSSGLSSSLNGTPQRSRGTPPPARKHQTLLSQSHVQVDGEQLARNRLPTDPSPDSHSSTSSDIFVDPNTNASSGGSSSNVLMVPCSPGVGHVGMGHAIKHRFTKALGFMATCTLCQKQVFHRWMKCTDCKYICHKSCAPHVPPSCGLPREYVDEFRHIKEQGGYASLPHVHGAAKGSPLVKKSTLGKPLHQQHGDSSSPSSSCTSSTPSSPALFQQRERELDQAGSSSSANLLPTPSLGKHQPSQFNFPNVTVTSSGGSGGVSLISNEPVPEQFPTAPATANGGLDSLVSSSNGHMSSLIGSQTSNASTAATLTGSLVNSTTTTSTCSFFPRKLSTAGVDKRTPFTSEYTDTHKSNDSDKTVSLSGSASTDSDRTPVRVDSTEDGDSGQWRQNSISLKEWDIPYGDLLLLERIGQGRFGTVHRALWHGDVAVKLLNEDYLQDEHMLETFRSEVANFKNTRHENLVLFMGACMNPPYLAIVTSLCKGNTLYTYIHQRREKFAMNRTLLIAQQIAQGMGYLHAREIIHKDLRTKNIFIENGKVIITDFGLFSSTKLLYCDMGLGVPHNWLCYLAPELIRALQPEKPRGECLEFTPYSDVYSFGTVWYELICGEFTFKDQPAESIIWQVGRGMKQSLANLQSGRDVKDLLMLCWTYEKEHRPQFARLLSLLEHLPKKRLARSPSHPVNLSRSAESVF
B2: Flag-CNK^2–549 [Drosophila] / GST-HYP [Drosophila] (parent complex)
chain 1: AYINIAEWTPDQVTDWIKGLDESMKGYLYEFSKQEIGGRALLNIRPYELENLGMLRIGHQEIVLEAVENLRNFHYHLKNDNLQFMALHVATAAKNLHRELARNHAESTKIDTRILHDITRTIATLKPLVGSLERTPFRKQEMYREYCGNVLKCGLELATIAHRDRFALQPVPAIRQSAERLENLANFVIQDISDPMVLQPASLNLVTLKKRESELGFNIESSYNGIHRVTDIKYNSPAHNSGKIEDGDEIVQINYQTVVGWQHRTVLEHLREALPDVVLTVKKRPKHTKMFGQIYMQPYRLPSKKRNMAARWAAQMPSPRAAFLTLDTEQLATGGTGSAVPDPSKSLSSEKREVLTKANPVSSASDSDSSCSDIPTPTDPKLAAREIRLYYPKPRALLQRRNTICGCEYLSLKNSDLVVPSWHERKPGIGSPTNCDPGSPSIRDKSISFGYGLEMAARPTTCIGIAGDTSTDKARRMFHEARKLKQLTEDSQREFLVDRYKPGVSKVVRFDAKEDYVMKNEKFICNVENTILETFEPIPFADEGDEDA
chain 2: MGEETINSTQNKTRTKTTRPKAVYLWTVSDVLKWYRRHCGEYTQYEQLFAQHDITGRALLRITDSSLQRMGVTDNRDREAIWREIVKQRLKTDIMEIRDMERLNIY

In the first test the parent is B1. The experiment in a line: anti-V5 immunoprecipitation, immunoblot quantification; S2 cells; V5-KSR and Myc-MEK co-expressed; anti-Myc (MEK) blot; parent: 1. A general note: Immunoblotting shows a protein as a band on a membrane.
For the variant chain 1 E323R, the ratio to parent stood at 0.82.

In a further test the parent is B1. The test can be described thus: anti-V5 immunoprecipitation, immunoblot quantification; S2 cells; V5-KSR and Myc-MEK co-expressed; anti-MEK blot; parent: 1.
Regarding chain 2 M902D, the ratio to parent was 0.9.

In the case of chain 2 K903D, the ratio to parent worked out at 0.46. Still for that read-out and setting: then chain 2 Y925D, with 1.24; and chain 2 E926R, with 1.51. On the same count and under the same terms, to chain 2 W896R belongs 0.15.

Variants of B1 are the subject of another test. The experiment in a line: anti-V5 immunoprecipitation, immunoblot quantification; S2 cells; V5-KSR and Myc-MEK co-expressed; anti-Myc (MEK) blot; parent: 1. This is another data set of the same source.
As to chain 2 R913E, the ratio to parent was 1.31.

In a further test the parent is B2. The test can be described thus: GST pull-down, immunoblot quantification; S2 cells; only GST-HYP and Flag-CNK2–549 co-expressed; anti-Flag blot; parent: 1.
As for chain 2 L90D, the ratio to parent was 0.24. chain 2 I97D: the ratio to parent worked out at 0.28.

Regarding chain 2 L90D, chain 2 I97D, the ratio to parent is 0.25.

The variants in the next test derive from B2. The test can be described thus: GST pull-down, immunoblot quantification; S2 cells; GST-HYP, Flag-CNK2–549 + RRKM co-expressed; anti-Flag (CNK) blot; parent: 1.
On to chain 2 L90D, for which the ratio to parent was found to be 0.24.

As for chain 2 I97D, the ratio to parent turned out to be 0.53.

Consider chain 2 L90D, chain 2 I97D, for which the ratio to parent worked out at 0.15.

The next test covers variants of B2. The experiment in a line: GST pull-down, immunoblot quantification; S2 cells; GST-HYP, V5-KSR, Myc-MEK co-expressed; anti-Flag (CNK) blot; parent: 1.
For chain 1 D194K, the ratio to parent was determined as 0.24. Turning to chain 1 M196E, the ratio to parent worked out at 0.55. Take chain 1 D194K, chain 1 V197E: the ratio to parent was found to be 0.27. Regarding chain 1 Q199A, the ratio to parent was found to be 0.87. Consider chain 1 S193A, for which the ratio to parent stood at 0.94. Still for that read-out and setting: then chain 1 V197E, with 0.24.

Variants of B2 are the subject of the next test. The test can be described thus: GST pull-down, immunoblot quantification; S2 cells; only Flag-CNK2–549 and GST-HYP co-expressed; anti-Flag (CNK) blot; parent: 1.
For the variant chain 1 D194K, the ratio to parent was determined as 0.76. The same measure, in the same setting: to chain 1 M196E belongs 0.82; to chain 1 D194K, chain 1 V197E, 1.03. Turning to chain 1 Q199A, the ratio to parent came to 0.83.

Consider chain 1 S193A, for which the ratio to parent amounted to 0.81. With chain 1 V197E, the ratio to parent is 0.77.

Variants of B2 are the subject of the next test. The test can be described thus: GST pull-down, immunoblot quantification; S2 cells; GST-HYP + RRKM (Ha-RASV12, Pyo-RAF, V5-KSR, Myc-MEK) co-expressed; anti-Flag (CNK) blot; parent: 1.
On to chain 1 D194K, for which the ratio to parent is 0.24. Same read-out and setting: to chain 1 M196E belongs 0.34; to chain 1 Q199A, 0.72. As to chain 1 S193A, the ratio to parent stood at 0.86.

With chain 1 V197E, the ratio to parent turned out to be 0.21.

Variants of B2 are the subject of a further test. The test can be described thus: GST pull-down, immunoblot quantification; S2 cells; GST-HYP, V5-KSR, Myc-MEK co-expressed; anti-Flag (CNK) blot; parent: 1. This is another data set of the same source.
As to chain 1 M196E, the ratio to parent worked out at 0.65. Turning to chain 1 K33D, the ratio to parent came to 0.84.

Take chain 1 A40F: the ratio to parent was 0.79. On the same count and under the same terms, then chain 1 H263A, with 0.95; and chain 1 T135F, with 0.84. In the case of chain 1 L267R, the ratio to parent amounted to 0.85. chain 1 R264E: the ratio to parent amounted to 0.68. For chain 1 K109E, the ratio to parent was found to be 0.81.

Variants of B2 are the subject of another test. The test can be described thus: GST pull-down, immunoblot quantification; S2 cells; only GST-HYP and Flag-CNK2–549 co-expressed; anti-Flag blot; parent: 1. The source holds these as a separate data set.
For chain 1 L151D, the ratio to parent was determined as 0.76. As for chain 1 I122D, chain 1 L151D, the ratio to parent stood at 0.12. For the variant chain 1 I122D, the ratio to parent amounted to 0.17.

Variants of B2 are the subject of another test. The test can be described thus: GST pull-down, immunoblot quantification; S2 cells; GST-HYP, Flag-CNK2–549 + RRKM co-expressed; anti-Flag (CNK) blot; parent: 1. The source holds these as a separate data set.
On to chain 1 L151D, for which the ratio to parent came out at 0.33.

For chain 1 I122D, chain 1 L151D, the ratio to parent was determined as 0.1. The same measure, in the same setting: to chain 1 I122D belongs 0.63.

The variants in the next test derive from B2. The experiment in a line: GST pull-down, immunoblot quantification; S2 cells; only Flag-CNK2–549 and GST-HYP co-expressed; anti-Flag (CNK) blot; parent: 1. This is another data set of the same source.
Turning to chain 1 R45F, the ratio to parent was 0.73. Take chain 1 N81E: the ratio to parent was 0.9. For the variant chain 1 N81W, the ratio to parent is 0.7. Consider chain 1 Q83E, for which the ratio to parent amounted to 1.12. Consider chain 1 R98E, for which the ratio to parent came to 1.27. For the variant chain 1 Y75R, the ratio to parent worked out at 0.93. As to chain 1 N95E, the ratio to parent stood at 0.99.

The variants in another test derive from B2. The experiment in a line: GST pull-down, immunoblot quantification; S2 cells; Flag-CNK2–549, V5-KSR, Myc-MEK, GST-HYP co-expressed; anti-CNK blot; parent: 1.
For chain 1 R45F, the ratio to parent is 0.79.

In the case of chain 1 N81E, the ratio to parent came to 0.24.

In the case of chain 1 N81W, the ratio to parent came to 0.09. Take chain 1 Q83E: the ratio to parent was determined as 0.4.

Take chain 1 R98E: the ratio to parent is 0.77. Take chain 1 Y75R: the ratio to parent is 0.73.

In the case of chain 1 N95E, the ratio to parent came out at 0.82.

Another test covers variants of B2. The experiment in a line: GST pull-down, immunoblot quantification; S2 cells; GST-HYP + RRKM co-expressed; anti-Flag (CNK) blot; parent: 1.
Consider chain 1 V251R, for which the ratio to parent turned out to be 0.68. chain 1 E249R: the ratio to parent was determined as 0.84. The same measure, in the same setting: to chain 1 F73R belongs 0.94. Take chain 1 A66F: the ratio to parent was found to be 0.87. Same read-out and setting: to chain 1 F73R, chain 1 V251R belongs 0.61.

The next test covers variants of B2. The test can be described thus: GST pull-down, immunoblot quantification; S2 cells; only Flag-CNK2–549 and GST-HYP co-expressed; anti-Flag blot; parent: 1.
Regarding chain 1 V251R, the ratio to parent worked out at 0.07. Turning to chain 1 E249R, the ratio to parent was found to be 0.75.

As to chain 1 F73R, the ratio to parent worked out at 0.91.

chain 1 A66F: the ratio to parent amounted to 0.29. Still for that read-out and setting: to chain 1 F73R, chain 1 V251R belongs 0.04.
